Substrate: O=C(O)[C@H]1C(CCO)O[C@@H]2CC(=O)N21
Description: Km for inactivation of TEM-1 beta-lactamase

B1: Beta-lactamase (Enterobacter cloacae), P05364 (protein)
chain: MMRKSLCCALLLGISCSALATPVSEKQLAEVVANTITPLMKAQSVPGMAVAVIYQGKPHYYTFGKADIAANKPVTPQTLFELGSISKTFTGVLGGDAIARGEISLDDAVTRYWPQLTGKQWQGIRMLDLATYTAGGLPLQVPDEVTDNASLLRFYQNWQPQWKPGTTRLYANASIGLFGALAVKPSGMPYEQAMTTRVLKPLKLDHTWINVPKAEEAHYAWGYRDGKAVRVSPGMLDAQAYGVKTNVQDMANWVMANMAPENVADASLKQGIALAQSRYWRIGSMYQGLGWEMLNWPVEANTVVEGSDSKVALAPLPVAEVNPPAPPVKASWVHKTGSTGGFGSYVAFIPEKQIGIVMLANTSYPNPARVEAAYHILEALQ
Question: How did the Km turn out when B1 was run?
Answer: 2.2 µM
